From patent publication US20250250350A1

Molecular target: Alkaline Phosphatase, Germ Cell (ALPG) expressed on K562-ALPG and K562-ALPG/MSLN target cells (UniProt P10696)
Sequence (P10696 20-503): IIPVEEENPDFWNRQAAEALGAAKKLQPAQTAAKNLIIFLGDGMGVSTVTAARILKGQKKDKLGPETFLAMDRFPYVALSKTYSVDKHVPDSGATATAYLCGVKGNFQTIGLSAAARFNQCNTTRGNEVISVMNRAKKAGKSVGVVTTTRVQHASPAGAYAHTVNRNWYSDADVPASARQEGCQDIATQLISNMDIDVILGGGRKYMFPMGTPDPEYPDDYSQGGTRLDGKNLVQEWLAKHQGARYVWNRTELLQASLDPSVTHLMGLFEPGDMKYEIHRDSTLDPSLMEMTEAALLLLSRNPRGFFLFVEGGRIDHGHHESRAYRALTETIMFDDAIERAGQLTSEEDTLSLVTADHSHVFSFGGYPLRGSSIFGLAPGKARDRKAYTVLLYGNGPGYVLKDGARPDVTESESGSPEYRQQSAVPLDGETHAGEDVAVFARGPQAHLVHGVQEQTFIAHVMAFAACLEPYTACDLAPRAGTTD

B1: Myc-tag ALPG/P priming receptor: anti-ALPG/P scFv-CD8α hinge-Notch1 TMD-Notch1 STS-HNF1aDBD-p65 activation domain (protein, not shown: small tags and cut ends)
chain: DIQMTQSPSSLSASVGDRVTITCRASENIYSYVAWYQQKPGKAPKLLIYNAKSLASGVPSRFSGSGSGTDFTLTISSLQPEDFATYYCQHHYVSPWTFGGGTKLEIKGGGGSGGGGSGGGGSQVQLQESGPGLVKPSETLSLTCTVSGFSLTSYGVSWIRQPAGKGLEWIGVIWEDGSTNYHSALISRVTMSVDTSKNQFSLKLSSVTAADTAVYYCARPHYGSSYVGAMEYWGAGTTVTVSSATTTPAPRPPTPAPTIASQPLSLRPEACFMYVAAAAFVLLFFVGCGVLLSRKRRRQHGQLWFPEGFKVSEASKKKRREPLGEDSVGLKPLKNAMVSKLSQLQTELLAALLESGLSKEALLQALGEPGPYLLAGEGPLDKGESCGGGRGELAELPNGLGETRGSEDETDDDGEDFTPPILKELENLSPEEAAHQKAVVETLLQEDPWRVAKMVKSYLQQHNIPQREVVDTTGLNQSHLSQHLNKGTPMKTQKRAALYTWYVRKQREVAQQFTHAGQGGLIEEPTGDELPTKKGRRNRFKWGPASQQILFQAYERQKNPSKEERETLVEECNRAECIQRGVSPSQAQGLGSNLVTEVRVYNWFANRRKEEAFRHKLAMTCRDEFPTMVFPSGQISQASALAPAPPQVLPQAPAPAPAPAMVSALAQAPAPVPVLAPGPPQAVAPPAPKPTQAGEGTLSEALLQLQFDDEDLGALLGNSTDPAVFTDLASVDNSEFQQLLNQGIPVAPHTTEPMLMEYPEAITRLVTGAQRPPDPAPAPLGAPGLPNGLLSGDEDFSSIADMDFSALLSQISS
  % of LG1 T cells CAR+ PrimeR+ (upper right quadrant) after 72 h with K562 ALPG high, 1:1: 0.043%
  % of LG1 T cells CAR+ PrimeR+ (upper right quadrant) after 72 h with K562 ALPG low, 1:1: 0.25%
  % of LG1 T cells CAR+ PrimeR+ (upper right quadrant), T cells alone, no ALPG cells (baseline): 1.11%
  % of LG1 T cells CAR+ PrimeR- (upper left quadrant) after 72 h with K562 ALPG high, 1:1: 5.29%
  % of LG1 T cells CAR+ PrimeR- (upper left quadrant) after 72 h with K562 ALPG low, 1:1: 5.88%
  % of LG1 T cells CAR+ PrimeR- (upper left quadrant; FLAG APC vs myc PE), T cells alone, no ALPG cells (baseline): 0.12%
  % of LG1 T cells PrimeR+ CAR- (lower right quadrant) after 72 h with K562 ALPG high, 1:1: 0.043%
  % of LG1 T cells PrimeR+ CAR- (lower right quadrant) after 72 h with K562 ALPG low, 1:1: 0.44%
  % of LG1 T cells PrimeR+ CAR- (lower right quadrant), T cells alone, no ALPG cells (baseline): 12%
